In patent US20180094075A1 (Pfizer, published 2018):
Each block holds one molecule with its values, some of them ahead of it.

Experiments:
[1] = target: human PTK7 expressed on cells (cancer cell lines with endogenous PTK7; HEK293T-PTK7 over-expressing cells) (human) (UniProt Q13308); assay: flow cytometry, H661 cells, 10 µg/mL
[2] = target: human PTK7 expressed on cells (cancer cell lines with endogenous PTK7; HEK293T-PTK7 over-expressing cells) (human) (UniProt Q13308); assay: flow cytometry, U2OS cells, 10 µg/mL
[3] = target: human PTK7 expressed on cells (cancer cell lines with endogenous PTK7; HEK293T-PTK7 over-expressing cells) (human) (UniProt Q13308); assay: flow cytometry, H446 cells, 10 µg/mL
[4] = target: T1, human PTK7 expressed on cells (cancer cell lines with endogenous PTK7; HEK293T-PTK7 over-expressing cells) (human, UniProt Q13308 31-1070); assay: cell-based or functional assay
T1 sequence: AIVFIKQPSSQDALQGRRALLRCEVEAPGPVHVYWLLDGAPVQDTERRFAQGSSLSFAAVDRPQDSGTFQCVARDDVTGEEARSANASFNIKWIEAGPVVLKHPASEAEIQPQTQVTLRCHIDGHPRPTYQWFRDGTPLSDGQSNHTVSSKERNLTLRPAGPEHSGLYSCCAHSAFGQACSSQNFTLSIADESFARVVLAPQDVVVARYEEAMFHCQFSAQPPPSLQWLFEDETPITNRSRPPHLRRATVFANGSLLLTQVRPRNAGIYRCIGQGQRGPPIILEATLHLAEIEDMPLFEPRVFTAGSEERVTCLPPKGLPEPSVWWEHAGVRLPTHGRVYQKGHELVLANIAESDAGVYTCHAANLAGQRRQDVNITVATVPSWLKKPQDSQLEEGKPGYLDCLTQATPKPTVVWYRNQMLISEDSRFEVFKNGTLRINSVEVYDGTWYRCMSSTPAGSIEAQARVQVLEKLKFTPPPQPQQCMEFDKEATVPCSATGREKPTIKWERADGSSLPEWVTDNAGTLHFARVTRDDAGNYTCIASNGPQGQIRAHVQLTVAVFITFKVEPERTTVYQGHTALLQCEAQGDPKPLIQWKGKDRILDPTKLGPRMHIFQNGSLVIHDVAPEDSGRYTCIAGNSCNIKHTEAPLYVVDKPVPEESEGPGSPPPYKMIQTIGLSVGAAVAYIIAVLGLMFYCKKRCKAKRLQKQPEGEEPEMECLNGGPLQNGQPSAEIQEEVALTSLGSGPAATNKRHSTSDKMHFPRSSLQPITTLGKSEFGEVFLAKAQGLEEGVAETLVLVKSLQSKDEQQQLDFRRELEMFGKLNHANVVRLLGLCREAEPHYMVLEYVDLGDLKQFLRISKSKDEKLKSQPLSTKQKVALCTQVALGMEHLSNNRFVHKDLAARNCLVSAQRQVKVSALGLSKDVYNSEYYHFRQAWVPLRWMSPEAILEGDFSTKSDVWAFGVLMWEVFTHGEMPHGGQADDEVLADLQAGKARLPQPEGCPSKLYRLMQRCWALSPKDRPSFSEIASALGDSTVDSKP

- MFI [1]: 4.2
- MFI [2]: 5.3
- MFI [3]: 11
Molecule: Control mAb (Table 7) (antibody)

B1: hu23 (humanized anti-PTK7 antibody) (antibody, V domains shown)
VH: QITLKESGPTLVKPTQTLTLTCTFSGFSLSTSNMGVGWIRQPPGKALEWLAHIWWDDDKYYSPSLKSRLTITKDTSKNQVVLTMTNMDPVDTATYYCVRSNYGYAWFAYWGQGTLVTVSS
VL: DIQMTQSPSSLSASVGDRVTITCKASQDIYPYLNWFQQKPGKAPKTLIYRTNRLLDGVPSRFSGSGSGTDFTFTISSLQPEDIATYYCLQYDEFPLTFGAGTKLEIKR
- IC50 of cell viability (MTS), antibody + saporin-conjugated anti-human Fab (Fab-ZAP), DMS114 cells [4]: 0.0103 µg/mL
- IC50 of cell viability (MTS), antibody + saporin-conjugated anti-human Fab (Fab-ZAP), H446 cells [4]: 0.0447 µg/mL
